Results from patent US20170212130A1.

Legend:
[1] = biological target: GFP-His6 (eGFP) (Aequorea victoria) [GFP: P42212]; test: label under gel lane; legend: in vitro Kd for GFP by SPR; the asterisk is not explained on the sheet
[2] = biological target: S. cerevisiae Nup84-GFP (S. cerevisiae) (UniProt P52891); test: time course of Nup84-GFP isolation from yeast with dimer-conjugated magnetic beads, Coomassie band quantification

Substance | Kd [1] [nM] | relative yield of affinity isolation, percent of maximum, after 5 minutes [2] [%] | relative yield of affinity isolation, percent of maximum, after 10 minutes [2] [%]
GFP-Trap nanobody (ChromoTek GmbH) (VHH) | 0.23 | – | –
LaG16-LaG2 fusion with a flexible glycine-rich linker (G4S) | – | 80 | 90
